# Target: Adhesion G Protein-coupled Receptor E2 (ADGRE2), overexpressed on murine lymphoma EL4 cells (human) (UniProt Q9UHX3)
# Assay: flow cytometry, scFv titrated on EL4 cells overexpressing ADGRE2
# UniProt Q9UHX3, sequence (Q9UHX3 24-823): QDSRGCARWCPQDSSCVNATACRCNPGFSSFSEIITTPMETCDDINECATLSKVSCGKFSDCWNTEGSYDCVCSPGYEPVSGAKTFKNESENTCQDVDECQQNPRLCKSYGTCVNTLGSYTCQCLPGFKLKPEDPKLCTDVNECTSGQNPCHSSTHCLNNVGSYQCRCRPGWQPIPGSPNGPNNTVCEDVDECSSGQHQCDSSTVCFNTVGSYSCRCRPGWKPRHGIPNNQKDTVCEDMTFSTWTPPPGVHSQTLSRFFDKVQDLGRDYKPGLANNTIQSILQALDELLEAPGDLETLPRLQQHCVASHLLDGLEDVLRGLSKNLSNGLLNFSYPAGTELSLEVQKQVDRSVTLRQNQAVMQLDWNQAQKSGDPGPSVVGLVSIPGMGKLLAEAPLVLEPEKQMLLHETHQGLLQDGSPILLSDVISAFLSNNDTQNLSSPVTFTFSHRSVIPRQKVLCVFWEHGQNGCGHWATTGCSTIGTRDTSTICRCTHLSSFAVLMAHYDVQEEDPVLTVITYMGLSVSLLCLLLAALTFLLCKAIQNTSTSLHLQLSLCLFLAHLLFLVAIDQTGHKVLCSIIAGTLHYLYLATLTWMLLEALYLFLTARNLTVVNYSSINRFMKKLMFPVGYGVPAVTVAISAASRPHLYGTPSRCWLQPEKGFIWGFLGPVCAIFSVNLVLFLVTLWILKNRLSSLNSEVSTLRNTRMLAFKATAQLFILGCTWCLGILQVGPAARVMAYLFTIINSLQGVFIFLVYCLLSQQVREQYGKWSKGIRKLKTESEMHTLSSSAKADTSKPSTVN
row,EC50 [nM],Binder
1,10.6,"anti-ADGRE2 scFv E (scFv, part only; not given: VH-VL linker, V domains shown, not shown: another chain or arm of the molecule; small tags and cut ends) VH: QVQLQQSGAEVKKPGASVKVSCKASGYTFTNYWMQWVRQAPGQGLEWIGAVYPGDGDTRHTQKFKGRVTMTADKSTSTVYMELSSLRSEDTAVYYCARGFTAYGMDYWGQGTLVTVSS VL: QIVLTQSPATLSLSPGERATLTCSASSSVSYMHWYQQKPGLSPKRWIYDTSKLASGVPDRFSGSGSGTDYTFTIRRLEPEDFATYYCQQWSSNPLTFGQGTKVEIK"
2,16.4,"anti-ADGRE2 scFv M (scFv, part only; not given: VH-VL linker, V domains shown, not shown: another chain or arm of the molecule; small tags and cut ends) VH: QVQLQQSGAEVKKPGASVKLSCKASGYTFTNYWMQWIRQAPGQGLEWIGAVYPGDGDTRYTQKFQGRATLTADTSTSTAYMEVSSLRSEDTAVYYCARGFTAYGMDYWGQGTTVTVSS VL: EIVLTQSPATLSASPGERVTMSCSASSSVSYMHWYQQKPGLAPRRWIYDTSKLASGVPDRFSGSGSGTDYTFTISRMEPEDFATYYCQQWSSNPLTFGGGTKLEIK"

# From patent US20230018888A1
